Data published in US20130130985A1.

Key:
Assay in all cases: cell-based or functional assay
[1] = target: T1, human oxytocin receptor (human), P30559
T1 chain: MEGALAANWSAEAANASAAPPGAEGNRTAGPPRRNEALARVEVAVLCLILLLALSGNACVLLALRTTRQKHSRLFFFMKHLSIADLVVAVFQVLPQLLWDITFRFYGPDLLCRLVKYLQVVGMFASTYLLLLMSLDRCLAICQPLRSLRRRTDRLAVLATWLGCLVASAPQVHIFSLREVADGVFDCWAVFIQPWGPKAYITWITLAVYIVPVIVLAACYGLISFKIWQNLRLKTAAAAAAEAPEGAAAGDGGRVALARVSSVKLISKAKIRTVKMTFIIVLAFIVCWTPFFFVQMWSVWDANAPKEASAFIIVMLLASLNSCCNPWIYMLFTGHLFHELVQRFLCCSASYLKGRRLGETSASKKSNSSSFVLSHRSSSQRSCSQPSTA

[2] = target: human vasopressin V1a receptor (human), P37288
Chain of human vasopressin V1a receptor (human), P37288 (P37288 whole entry): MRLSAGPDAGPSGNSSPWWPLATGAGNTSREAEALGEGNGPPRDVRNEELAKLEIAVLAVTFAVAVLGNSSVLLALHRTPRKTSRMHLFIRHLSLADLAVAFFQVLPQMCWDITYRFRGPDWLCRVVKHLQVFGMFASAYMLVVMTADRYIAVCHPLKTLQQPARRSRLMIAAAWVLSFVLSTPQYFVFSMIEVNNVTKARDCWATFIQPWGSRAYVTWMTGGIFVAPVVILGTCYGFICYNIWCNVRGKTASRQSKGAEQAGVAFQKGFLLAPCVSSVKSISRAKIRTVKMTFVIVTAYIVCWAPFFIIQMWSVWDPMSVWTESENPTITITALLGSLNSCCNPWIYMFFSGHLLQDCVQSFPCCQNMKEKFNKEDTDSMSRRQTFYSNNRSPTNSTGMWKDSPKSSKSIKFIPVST

[3] = target: T2, human vasopressin V1b receptor (human), P47901
T2 chain: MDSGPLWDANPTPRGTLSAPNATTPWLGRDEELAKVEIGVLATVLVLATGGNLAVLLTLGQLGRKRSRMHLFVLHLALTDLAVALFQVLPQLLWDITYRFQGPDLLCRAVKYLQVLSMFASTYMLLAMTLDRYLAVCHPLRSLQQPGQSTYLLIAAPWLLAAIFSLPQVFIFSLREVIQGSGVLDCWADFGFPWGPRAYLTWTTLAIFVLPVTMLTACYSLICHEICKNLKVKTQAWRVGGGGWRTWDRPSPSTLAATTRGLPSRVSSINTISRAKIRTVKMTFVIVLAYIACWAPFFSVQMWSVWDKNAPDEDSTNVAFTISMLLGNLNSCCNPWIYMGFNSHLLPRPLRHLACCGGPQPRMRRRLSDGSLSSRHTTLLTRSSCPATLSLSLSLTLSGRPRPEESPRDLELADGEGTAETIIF

[4] = target: human vasopressin V2 receptor (human), P30518

EC50, IP-One HTRF assay [1]: 400 nM | Emax, FLIPR calcium assay [1]: 89% | Emax, IP-One HTRF assay [1]: 72% | Emax, FLIPR calcium assay [2]: 100% | Emax, FLIPR calcium assay [3]: 92% | Emax, IP-One HTRF assay [3]: 96% | Emax, cAMP accumulation assay [4]: 134%
Binder: UYIQNUPLG (not fully specified; modifications not checked) [d[C1,6U]-OT]
